# Measured values taken from the supplement of paper PMC10567573.
# B1: BTBD10 (parent)
# chain: DRKLHSRPRKLYKHSSTSSRIAKG
# Variants of: B1
# Assay: protein stability index of a GFP-peptide fusion (GPS, HEK-293T) (PSI 1-6); higher = more stable
# Details: c terminus: a fixed tail appended
# 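Further: lentivirally expressed fusions sorted by FACS into six bins by GFP to DsRed ratio, PSI derived from sequencing read proportions per bin multiplied by bin number.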
row,Variant,protein stability index
1,D1Y,3.03
2,D1A,3.27
3,D1F,2.9
4,D1M,3.8
5,D1H,3.42
6,D1V,3.93
7,D1R,3.05
8,S15V,3.88
9,S15D,4.22
10,S15H,3.25
11,S15N,3.66
12,S15I,3.43
13,S15C,3.89
14,S15R,4.12
15,S15E,4.06
16,A22W,3.47
17,A22K,3.68
18,A22E,3.67
19,A22Q,4.15
20,A22C,3.11
21,A22R,4.5
22,A22V,3.71
23,A22P,3.99
24,G24Q,3.92

row,Variant,protein stability index
1,G24V,3.74
2,G24H,3.35
3,G24K,4.14
4,G24T,4
5,G24D,3.65
6,L4A,4.42
7,L4T,4.3
8,L4P,4.11
9,L4Y,3.8
10,L4S,4.71
11,L4C,3.9
12,K10W,3.33
13,K10G,3.52
14,K10P,3.25
15,K10S,4.09
16,K13Q,4.12
17,K13S,3.52
18,K13W,3.55
19,K13E,4.47
20,K13T,4
21,P8Y,2.82
22,P8R,3.18
23,P8E,4.08
24,P8G,3.68

row,Variant,protein stability index
1,P8I,3.65
2,R7V,3.28
3,R7H,3.79
4,R7L,2.84
5,R7S,4.21
6,R7C,3.76
7,R7F,2.59
8,R7E,4.41
9,R7Q,4.4
10,R7T,4.31
11,R2I,2.66
12,R2H,4.46
13,R2N,3.96
14,R2Y,3.16
15,R2D,4.04
16,R2E,4.39
17,R2P,4.02
18,R2Q,4.19
19,R2T,4.09
20,R2L,2.7
21,K23N,4.61
22,K23G,4.08
23,K23I,2.92
24,K23V,3.31

row,Variant,protein stability index
1,K23M,2.89
2,K23L,3
3,K23Q,4.1
4,K23E,4.08
5,K23S,3.41
6,Y12D,4.27
7,Y12L,3.88
8,Y12R,4.21
9,Y12Q,4.01
10,R9G,4.3
11,R9M,3.74
12,R9S,4.47
13,R9H,3.7
14,R9I,3.02
15,R9F,3.27
16,R9T,3.84
17,R9W,3.51
18,R9Y,3.64
19,R9D,4.01
20,T17H,3.63
21,T17I,3.56
22,T17V,3.81
23,T17N,3.18
24,T17D,4.54

row,Variant,protein stability index
1,T17E,4.41
2,T17W,2.2
3,T17A,3.7
4,T17K,4.33
5,H5Y,3.02
6,H5R,3.9
7,H5C,3.9
8,H5D,3.99
9,H5L,3.72
10,H5A,4.22
11,H5F,4.43
12,H5W,3.16
13,H5S,4.34
14,H5P,4.5
15,I21K,4.28
16,I21L,3.96
17,I21Q,3.36
18,I21N,4.03
19,I21F,3.65
20,I21T,4.18
21,I21M,3.77
22,I21E,4.33
23,R20W,2.97
24,R20Y,3.94

row,Variant,protein stability index
1,R20C,3.39
2,R20K,3.92
3,R20P,3.6
4,R20G,3.62
5,R20M,4.06
6,R20I,3.66
7,R20V,3.96
8,R20S,3.85
9,R20A,3.9
10,R20T,4.13
11,K3C,3.95
12,K3S,3.57
13,K3Q,3.87
14,K3D,4.42
15,K3Y,3.37
16,K3I,3.47
17,S16W,3.25
18,S16T,4.35
19,S16A,4.32
20,S16R,3.78
21,S16Y,3.45
22,S16I,3.65
23,S16C,3.43
24,S16P,3.87

row,Variant,protein stability index
1,S16V,4.03
2,L11H,3.93
3,L11P,3.79
4,L11D,3.71
5,L11F,4.91
6,L11A,4.08
7,L11K,4.19
8,L11W,3.67
9,L11I,3.61
10,L11G,4.16
11,S18C,3.27
12,S18D,4.13
13,S18T,3.65
14,S18R,3.63
15,S18G,3.99
16,S18N,4.36
17,S18E,4.38
18,S18K,3.4
19,S18I,3.54
20,S18Q,3.95
21,S19W,3.22
22,S19I,3.7
23,S19E,4.42
24,S19G,3.57

row,Variant,protein stability index
1,S19Y,2.62
2,S19K,4.18
3,H14I,3.88
4,H14N,4.43
5,H14L,3.4
6,H14F,4.44
7,H14C,4.41
8,H14Y,2.79
9,H14M,3.67
10,H14Q,3.79
11,S6R,3.39
12,S6N,4.04
13,S6F,3.18
14,S6K,3.55
15,S6W,2.92
16,S6A,3.67
17,S6D,4.69
18,S6T,3.76
19,S6M,3.46
